# Measured values from PMC7484505.
# Legend:
# hNav1.7^GFP (human) = hNav1.7^GFP (human) (UniProt Q15858)
# hNav1.7/A1632E (human) = hNav1.7/A1632E (human) (UniProt Q15858)
# [1] = molecular target: hNav1.7/A1632E^His-StrepII (human) (UniProt Q15858)
substance,measurement,setting,value
hNav1.7/R896Q (from UniProt Q15858-3 1-1977) (natural protein),"peak current density (whole-cell patch clamp) of the Nav1.7 stable HEK cell line (untagged hNav1.7/WT) on co-expression of hNav1.7/R896Q, against the stable line alone",hNav1.7^GFP (human),31%
hNav1.7/A1632E (from UniProt Q15858-3 1-1977) (natural protein),"maximal relative persistent current of hNav1.7/A1632E in HEK293T cells (patch clamp), without against with co-expressed difopein",hNav1.7/A1632E (human),13.2%
hNav1.7/A1632E^His-StrepII (from UniProt Q15858-3 1-1977) (natural protein),"maximal relative persistent current of hNav1.7/A1632E in X. laevis oocytes (TEVC), without against with co-injected difopein cRNA",[1],-13.6%
